Data set [1] addresses T1, His-MBP-ZNF384 (human, UniProt Q8TF68-2 1-516).
T1 sequence: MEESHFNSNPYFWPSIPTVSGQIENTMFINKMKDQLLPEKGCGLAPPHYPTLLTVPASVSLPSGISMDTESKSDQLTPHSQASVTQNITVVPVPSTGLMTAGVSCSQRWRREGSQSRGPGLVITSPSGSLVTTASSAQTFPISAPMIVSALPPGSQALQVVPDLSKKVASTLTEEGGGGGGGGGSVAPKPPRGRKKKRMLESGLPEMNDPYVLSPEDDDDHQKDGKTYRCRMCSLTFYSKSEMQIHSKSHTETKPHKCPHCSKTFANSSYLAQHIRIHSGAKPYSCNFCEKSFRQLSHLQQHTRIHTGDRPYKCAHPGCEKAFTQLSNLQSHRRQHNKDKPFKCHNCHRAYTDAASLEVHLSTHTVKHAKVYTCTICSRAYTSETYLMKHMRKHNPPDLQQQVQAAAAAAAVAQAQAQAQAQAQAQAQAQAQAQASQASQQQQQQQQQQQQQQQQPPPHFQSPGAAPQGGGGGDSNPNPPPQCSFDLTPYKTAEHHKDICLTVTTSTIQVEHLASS
In words: BLI; 400 nM protein; Pull-down: 10 mM Tris pH 7.5, 150 mM KCl, 5 mM MgCl2, 0.25% Tween-20, 3.5 mM DTT, 5% glycerol, 0.1% BSA, 4 C; BLI: 10 mM Tris pH 7.5, 150 mM KCl, 5 mM MgCl2, 0.05% Tween-20, 0.1% BSA, 1 mM DTT, 298 K. Particulars: protein: recombinant; tags: His6-MBP; label: 5' biotin; single strand. In general terms: In BLI a coated tip is dipped into the sample, and binding shifts an interference pattern.

Data set [2] addresses His-Ku70/Ku80;His-MBP-ZNF384 (human?;human, UniProt P12956;P13010;Q8TF68-2 1-609;1-732;1-516, |). The experiment in a line: pull-down; Ku binding enhanced by increasing ZNF384; Pull-down: 10 mM Tris pH 7.5, 150 mM KCl, 5 mM MgCl2, 0.25% Tween-20, 3.5 mM DTT, 5% glycerol, 0.1% BSA, 4 C; BLI: 10 mM Tris pH 7.5, 150 mM KCl, 5 mM MgCl2, 0.05% Tween-20, 0.1% BSA, 1 mM DTT, 298 K. Particulars: protein: recombinant;recombinant; tags: His;His6-MBP; copies: 1;1;1; label: 5' biotin on strand 1; 3' overhang 20 nt (strand 1, T-rich), 24 bp duplex.

The target of a further data set is His-Ku70/Ku80 (UniProt P12956;P13010 1-609;1-732). The experiment in a line: pull-down; 100 fmol Ku, without ZNF384; Pull-down: 10 mM Tris pH 7.5, 150 mM KCl, 5 mM MgCl2, 0.25% Tween-20, 3.5 mM DTT, 5% glycerol, 0.1% BSA, 4 C; BLI: 10 mM Tris pH 7.5, 150 mM KCl, 5 mM MgCl2, 0.05% Tween-20, 0.1% BSA, 1 mM DTT, 298 K. As to conditions: protein: recombinant; tags: His; copies: 1;1; label: 5' biotin on strand 1; 3' overhang 20 nt (strand 1, T-rich), 24 bp duplex.

Data set [3] concerns the target T1, His-MBP-ZNF384. In words: BLI; 400 nM protein; seemingly lower affinity than ssDNA; Pull-down: 10 mM Tris pH 7.5, 150 mM KCl, 5 mM MgCl2, 0.25% Tween-20, 3.5 mM DTT, 5% glycerol, 0.1% BSA, 4 C; BLI: 10 mM Tris pH 7.5, 150 mM KCl, 5 mM MgCl2, 0.05% Tween-20, 0.1% BSA, 1 mM DTT, 298 K. Particulars: protein: recombinant, tags: His6-MBP, 24 bp duplex.
In data set [4] the target is T1, His-MBP-ZNF384. In words: pull-down; did not show RNA binding; Pull-down: 10 mM Tris pH 7.5, 150 mM KCl, 5 mM MgCl2, 0.25% Tween-20, 3.5 mM DTT, 5% glycerol, 0.1% BSA, 4 C; BLI: 10 mM Tris pH 7.5, 150 mM KCl, 5 mM MgCl2, 0.05% Tween-20, 0.1% BSA, 1 mM DTT, 298 K. Particulars: protein: recombinant; tags: His6-MBP; label: 5' biotin; single strand.

Chain of His-Ku70/Ku80 (P12956 whole entry, chain 1 of 2): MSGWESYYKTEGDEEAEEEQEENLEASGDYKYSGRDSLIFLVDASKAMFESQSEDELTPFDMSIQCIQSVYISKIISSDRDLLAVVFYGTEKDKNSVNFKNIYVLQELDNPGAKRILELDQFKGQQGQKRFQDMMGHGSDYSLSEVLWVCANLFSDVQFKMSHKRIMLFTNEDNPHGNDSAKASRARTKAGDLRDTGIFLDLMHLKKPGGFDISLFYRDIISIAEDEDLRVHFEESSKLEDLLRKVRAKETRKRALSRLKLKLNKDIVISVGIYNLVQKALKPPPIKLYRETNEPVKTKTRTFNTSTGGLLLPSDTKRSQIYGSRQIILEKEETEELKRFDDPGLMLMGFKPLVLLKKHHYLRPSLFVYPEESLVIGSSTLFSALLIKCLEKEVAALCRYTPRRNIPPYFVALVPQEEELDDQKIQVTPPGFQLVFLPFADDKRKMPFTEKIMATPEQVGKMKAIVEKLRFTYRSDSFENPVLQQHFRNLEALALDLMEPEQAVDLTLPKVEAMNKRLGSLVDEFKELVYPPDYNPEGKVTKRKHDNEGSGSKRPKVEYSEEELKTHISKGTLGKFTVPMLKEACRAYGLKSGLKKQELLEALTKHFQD
Chain of His-Ku70/Ku80 (P13010 whole entry, chain 2 of 2): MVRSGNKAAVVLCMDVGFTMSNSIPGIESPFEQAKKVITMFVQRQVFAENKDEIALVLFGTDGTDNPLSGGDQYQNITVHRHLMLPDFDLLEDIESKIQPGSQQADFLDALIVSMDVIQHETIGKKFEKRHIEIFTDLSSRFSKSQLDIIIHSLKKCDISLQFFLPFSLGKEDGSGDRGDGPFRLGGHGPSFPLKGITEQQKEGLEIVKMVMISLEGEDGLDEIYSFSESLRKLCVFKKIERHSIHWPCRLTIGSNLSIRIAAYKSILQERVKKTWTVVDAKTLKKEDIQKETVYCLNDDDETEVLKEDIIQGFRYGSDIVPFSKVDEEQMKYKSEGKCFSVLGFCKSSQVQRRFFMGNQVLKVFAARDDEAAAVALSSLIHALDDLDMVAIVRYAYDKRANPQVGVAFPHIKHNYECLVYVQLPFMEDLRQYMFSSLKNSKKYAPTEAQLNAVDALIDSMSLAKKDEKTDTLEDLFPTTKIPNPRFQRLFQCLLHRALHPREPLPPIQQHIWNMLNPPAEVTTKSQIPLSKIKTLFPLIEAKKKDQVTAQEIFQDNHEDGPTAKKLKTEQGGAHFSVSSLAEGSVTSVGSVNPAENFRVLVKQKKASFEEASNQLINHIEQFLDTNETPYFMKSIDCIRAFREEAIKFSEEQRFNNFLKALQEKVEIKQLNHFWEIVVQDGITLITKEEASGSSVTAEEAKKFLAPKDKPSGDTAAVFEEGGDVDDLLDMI
Chain of His-Ku70/Ku80;His-MBP-ZNF384 (P12956 whole entry, chain 1 of 2): as the sequence (P12956 whole entry, chain 1 of 2) above
Chain of His-Ku70/Ku80;His-MBP-ZNF384 (P13010 whole entry, chain 2 of 2): as the sequence (P13010 whole entry, chain 2 of 2) above

With GCGATCATGACGTAGACGATAGCGTTCTTTTTTTTTCTTTTTCT (ssDNA) [ssDNA T-strand (ssDNA(T))], the binding result with His-MBP-ZNF384 [1] was “binds”.

B1: 3' overhang DNA (dsDNA)
DNA 1: GCGATCATGACGTAGACGATAGCGTTCTTTTTTTTTCTTTTTCT
DNA 2: CGCTATCGTCTACGTCATGATCGC
For the molecule B1, the binding result in data set [2] was “binds”; in the data set with His-Ku70/Ku80, “binds”; with His-MBP-ZNF384 [3] (label: 5' biotin on strand 1, 3' overhang 20 nt (strand 1, T-rich)) it was “binds”.
GCGAUCAUGACGUAGACGAUAGCGUUCUUUUUUUUUCUUUUUCU (ssRNA) [RNA U-strand]: in the data set with His-MBP-ZNF384 [4], the binding result is recorded as “no binding”.

B2: 5' overhang DNA (dsDNA)
DNA 1: TTCTTTTTTTTTCTTTTTCTGCGATCATGACGTAGACGATAGCG
DNA 2: CGCTATCGTCTACGTCATGATCGC
B2: in the data set with His-MBP-ZNF384 [3] (label: 5' biotin on strand 2, 5' overhang 20 nt (strand 1, T-rich)), the binding result is “binds”.

The record behind these values is PMC8589989.
